This is an account of results in publication PMC7948467, “Discovery of an ultraspecific triuret hydrolase (TrtA) establishes the triuret biodegradation pathway” (The Journal of Biological Chemistry, 2020).

Series [1] has as its system T1, NC(=O)NC(=O)NC(N)=O.
T1 construct: recombinant
In words: ammonia release, Berthelot assay. It is filed as biochemical, Rhodococcus sp. Mel. Particulars: phosphate buffer, pH optimum, 25 °C, saturation not achieved.

Series [2] relates to T2, NC(=O)NC(N)=O.
T2 construct: recombinant
The series can be described thus: ammonia release, Berthelot assay. Particulars: phosphate buffer, pH optimum, 25 °C. It is filed as biochemical, Rhodococcus sp. Mel.

For series [3], the target named is Triuret hydrolase (TrtA) from Herbaspirillum sp. BH-1, wild type, His-tag cleaved (Herbaspirillum sp. BH-1). The series can be described thus: SEC; HiLoad 16/600 Superdex 200 pg, 50 mM Tris, 200 mM sodium chloride, pH 8, 1 ml/min; His-tag cleaved TrtA. On the technique in general: In gel filtration, larger molecules generally elute earlier.

Chain of RhdBiuH (Rhodococcus sp. Mel) (chain, as listed by the source): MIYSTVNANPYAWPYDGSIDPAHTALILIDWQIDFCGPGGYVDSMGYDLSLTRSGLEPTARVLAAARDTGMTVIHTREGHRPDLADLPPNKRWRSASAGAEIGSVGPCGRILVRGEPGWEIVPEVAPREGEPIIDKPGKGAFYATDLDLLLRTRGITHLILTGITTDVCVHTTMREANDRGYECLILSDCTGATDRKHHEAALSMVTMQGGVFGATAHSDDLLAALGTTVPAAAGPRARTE

Usually kcat stands for the number of substrate molecules converted per active site and unit of time at saturation. As a reminder, the kcat/Km is the second-order rate constant that governs catalysis at low substrate concentration. A word on the Km: it is the substrate concentration at which the rate is half of its maximum. In the case of RhdBiuH (Rhodococcus sp. Mel), in series [1], the kcat was found to be 0.14 s⁻¹ and the kcat/Km was determined as 170 ± 40 M⁻¹ s⁻¹. The Km in series [2] was 95 ± 26 µM.
One may read the stoichiometry N as the number of molecules, sites or subunits per partner or assembly. “Triuret hydrolase (TrtA) from Herbaspirillum sp. BH-1, wild type, His-tag cleaved (from UniProt A0A2N6JFX7 1-220) (enzyme)”: in series [3], the stoichiometry N is 2.
